Columns and labels:
[1] = tested on: GFP-14-3-3β and its binding proteins; experiment: GFP-14-3-3β co-IP with LC-MS/MS label-free quantification, untreated versus PP1c-treated; parameters: species or system human; conditions: pairwise comparison PP1 vs untreated
GFP-14-3-3β = GFP-14-3-3β co-IP with LC-MS/MS, untreated GFP-14-3-3β versus GFP control (14-3-3 interactome); type: binding, human; conditions: pairwise comparison untreated vs GFP
[2] = log2 difference, label-free quantification, 3 replicates each

Row | Molecule | Difference (log2), PP1 vs untreated [1] | Difference (log2), untreated vs GFP (GFP-14-3-3β) | Difference (log2), PP1 vs untreated [1, 2] | Difference (log2), untreated vs GFP (GFP-14-3-3β; [2])
1 | TUBB6 (protein, UniProt Q9BUF5 1-446, looked up) Tubulin beta-6 chain: MREIVHIQAGQCGNQIGTKFWEVISDEHGIDPAGGYVGDSALQLERINVYYNESSSQKYVPRAALVDLEPGTMDSVRSGPFGQLFRPDNFIFGQTGAGNNWAKGHYTEGAELVDAVLDVVRKECEHCDCLQGFQLTHSLGGGTGSGMGTLLISKIREEFPDRIMNTFSVMPSPKVSDTVVEPYNATLSVHQLVENTDETYCIDNEALYDICFRTLKLTTPTYGDLNHLVSATMSGVTTSLRFPGQLNADLRKLAVNMVPFPRLHFFMPGFAPLTSRGSQQYRALTVPELTQQMFDARNMMAACDPRHGRYLTVATVFRGPMSMKEVDEQMLAIQSKNSSYFVEWIPNNVKVAVCDIPPRGLKMASTFIGNSTAIQELFKRISEQFSAMFRRKAFLHWFTGEGMDEMEFTEAESNMNDLVSEYQQYQDATANDGEEAFEDEEEEIDG | -0.03516 log2 | -0.8713 log2 |  | 
2 | HNRNPM (protein, UniProt P52272 2-730, looked up) Heterogeneous nuclear …: AAGVEAAAEVAATEIKMEEESGAPGVPSGNGAPGPKGEGERPAQNEKRKEKNIKRGGNRFEPYANPTKRYRAFITNIPFDVKWQSLKDLVKEKVGEVTYVELLMDAEGKSRGCAVVEFKMEESMKKAAEVLNKHSLSGRPLKVKEDPDGEHARRAMQKVMATTGGMGMGPGGPGMITIPPSILNNPNIPNEIIHALQAGRLGSTVFVANLDYKVGWKKLKEVFSMAGVVVRADILEDKDGKSRGIGTVTFEQSIEAVQAISMFNGQLLFDRPMHVKMDERALPKGDFFPPERPQQLPHGLGGIGMGLGPGGQPIDANHLNKGIGMGNIGPAGMGMEGIGFGINKMGGMEGPFGGGMENMGRFGSGMNMGRINEILSNALKRGEIIAKQGGGGGGGSVPGIERMGPGIDRLGGAGMERMGAGLGHGMDRVGSEIERMGLVMDRMGSVERMGSGIERMGPLGLDHMASSIERMGQTMERIGSGVERMGAGMGFGLERMAAPIDRVGQTIERMGSGVERMGPAIERMGLSMERMVPAGMGAGLERMGPVMDRMATGLERMGANNLERMGLERMGANSLERMGLERMGANSLERMGPAMGPALGAGIERMGLAMGGGGGASFDRAIEMERGNFGGSFAGSFGGAGGHAPGVARKACQIFVRNLPFDFTWKMLKDKFNECGHVLYADIKMENGKSKGCGVVKFESPEVAERACRMMNGMKLSGREIDVRIDRNA | -0.01052 log2 | 0.1311 log2 |  | 
3 | SLC1A5 (protein, UniProt Q15758 1-541, looked up) Neutral amino acid …: MVADPPRDSKGLAAAEPTANGGLALASIEDQGAAAGGYCGSRDQVRRCLRANLLVLLTVVAVVAGVALGLGVSGAGGALALGPERLSAFVFPGELLLRLLRMIILPLVVCSLIGGAASLDPGALGRLGAWALLFFLVTTLLASALGVGLALALQPGAASAAINASVGAAGSAENAPSKEVLDSFLDLARNIFPSNLVSAAFRSYSTTYEERNITGTRVKVPVGQEVEGMNILGLVVFAIVFGVALRKLGPEGELLIRFFNSFNEATMVLVSWIMWYAPVGIMFLVAGKIVEMEDVGLLFARLGKYILCCLLGHAIHGLLVLPLIYFLFTRKNPYRFLWGIVTPLATAFGTSSSSATLPLMMKCVEENNGVAKHISRFILPIGATVNMDGAALFQCVAAVFIAQLSQQSLDFVKIITILVTATASSVGAAGIPAGGVLTLAIILEAVNLPVDHISLILAVDWLVDRSCTVLNVEGDALGAGLLQNYVDRTESRSTEPELIQVKSELPLDPLPVPTEEGNPLLKHYRGPAGDATVASEKESVM | -0.02668 log2 | 0.7589 log2 |  | 
4 | SNRPA1 (protein, UniProt P09661 2-255, looked up) U2 small nuclear …: VKLTAELIEQAAQYTNAVRDRELDLRGYKIPVIENLGATLDQFDAIDFSDNEIRKLDGFPLLRRLKTLLVNNNRICRIGEGLDQALPCLTELILTNNSLVELGDLDPLASLKSLTYLSILRNPVTNKKHYRLYVIYKVPQVRVLDFQKVKLKERQEAEKMFKGKRGAQLAKDIARRSKTFNPGAGLPTDKKKGGPSPGDVEAIKNAIANASTLAEVERLKGLLQSGQIPGRERRSGPTDDGEEEMEEDTVTNGS | -0.04086 log2 | 0.8199 log2 |  | 
5 | FARP1 (protein, UniProt Q9Y4F1 1-1045, looked up) FERM, ARHGEF and pleckstrin …: MGEIEQRPTPGSRLGAPENSGISTLERGQKPPPTPSGKLVSIKIQMLDDTQEAFEVPQRAPGKVLLDAVCNHLNLVEGDYFGLEFPDHKKITVWLDLLKPIVKQIRRPKHVVVKFVVKFFPPDHTQLQEELTRYLFALQVKQDLAQGRLTCNDTSAALLISHIVQSEIGDFDEALDREHLAKNKYIPQQDALEDKIVEFHHNHIGQTPAESDFQLLEIARRLEMYGIRLHPAKDREGTKINLAVANTGILVFQGFTKINAFNWAKVRKLSFKRKRFLIKLRPDANSAYQDTLEFLMASRDFCKSFWKICVEHHAFFRLFEEPKPKPKPVLFSRGSSFRFSGRTQKQVLDYVKEGGHKKVQFERKHSKIHSIRSLASQPTELNSEVLEQSQQSTSLTFGEGAESPGGQSCRRGKEPKVSAGEPGSHPSPAPRRSPAGNKQADGAASAPTEEEEEVVKDRTQQSKPQPPQPSTGSLTGSPHLSELSVNSQGGVAPANVTLSPNLSPDTKQASPLISPLLNDQACPRTDDEDEGRRKRFPTDKAYFIAKEVSTTERTYLKDLEVITSWFQSTVSKEDAMPEALKSLIFPNFEPLHKFHTNFLKEIEQRLALWEGRSNAQIRDYQRIGDVMLKNIQGMKHLAAHLWKHSEALEALENGIKSSRRLENFCRDFELQKVCYLPLNTFLLRPLHRLMHYKQVLERLCKHHPPSHADFRDCRAALAEITEMVAQLHGTMIKMENFQKLHELKKDLIGIDNLVVPGREFIRLGSLSKLSGKGLQQRMFFLFNDVLLYTSRGLTASNQFKVHGQLPLYGMTIEESEDEWGVPHCLTLRGQRQSIIVAASSRSEMEKWVEDIQMAIDLAEKSSSPAPEFLASSPPDNKSPDEATAADQESEDDLSASRTSLERQAPHRGNTMVHVCWHRNTSVSMVDFSIAVENQLSGNLLRKFKNSNGWQKLWVVFTNFCLFFYKSHQDNHPLASLPLLGYSLTIPSESENIQKDYVFKLHFKSHVYYFRAESEYTFERWMEVIRSATSSASRPHVLSHKESLVY | -0.03585 log2 | 0.5364 log2 |  | 
6 | BST2 (protein, UniProt Q10589 1-161, looked up) Bone marrow stromal antigen 2: MASTSYDYCRVPMEDGDKRCKLLLGIGILVLLIIVILGVPLIIFTIKANSEACRDGLRAVMECRNVTHLLQQELTEAQKGFQDVEAQAATCNHTVMALMASLDAEKAQGQKKVEELEGEITTLNHKLQDASAEVERLRRENQVLSVRIADKKYYPSSQDSS |  |  | 1.808 | -3.2427
7 | DNAJC10 (protein, UniProt Q8IXB1 33-793, looked up) DnaJ homolog subfamily C …: DQDFYSLLGVSKTASSREIRQAFKKLALKLHPDKNPNNPNAHGDFLKINRAYEVLKDEDLRKKYDKYGEKGLEDNQGGQYESWNYYRYDFGIYDDDPEIITLERREFDAAVNSGELWFVNFYSPGCSHCHDLAPTWRDFAKEVDGLLRIGAVNCGDDRMLCRMKGVNSYPSLFIFRSGMAPVKYHGDRSKESLVSFAMQHVRSTVTELWTGNFVNSIQTAFAAGIGWLITFCSKGGDCLTSQTRLRLSGMLDGLVNVGWMDCATQDNLCKSLDITTSTTAYFPPGATLNNKEKNSILFLNSLDAKEIYLEVIHNLPDFELLSANTLEDRLAHHRWLLFFHFGKNENSNDPELKKLKTLLKNDHIQVGRFDCSSAPDICSNLYVFQPSLAVFKGQGTKEYEIHHGKKILYDILAFAKESVNSHVTTLGPQNFPANDKEPWLVDFFAPWCPPCRALLPELRRASNLLYGQLKFGTLDCTVHEGLCNMYNIQAYPTTVVFNQSNIHEYEGHHSAEQILEFIEDLMNPSVVSLTPTTFNELVTQRKHNEVWMVDFYSPWCHPCQVLMPEWKRMARTLTGLINVGSIDCQQYHSFCAQENVQRYPEIRFFPPKSNKAYHYHSYNGWNRDAYSLRIWGLGFLPQVSTDLTPQTFSEKVLQGKNHWVIDFYAPWCGPCQNFAPEFELLARMIKGKVKAGKVDCQAYAQTCQKAGIRAYPTVKFYFYERAKRNFQEEQINTRDAKAIAALISEKLETLRNQGKRNKDEL | -0.01679 log2 | 0.1892 log2 |  | 
8 | SPECC1 (protein, UniProt Q5M775 1-1068, looked up) Cytospin-B: MRSAAKPWNPAIRAGGHGPDRVRPLPAASSGMKSSKSSTSLAFESRLSRLKRASSEDTLNKPGSTAASGVVRLKKTATAGAISELTESRLRSGTGAFTTTKRTGIPAPREFSVTVSRERSVPRGPSNPRKSVSSPTSSNTPTPTKHLRTPSTKPKQENEGGEKAALESQVRELLAEAKAKDSEINRLRSELKKYKEKRTLNAEGTDALGPNVDGTSVSPGDTEPMIRALEEKNKNFQKELSDLEEENRVLKEKLIYLEHSPNSEGAASHTGDSSCPTSITQESSFGSPTGNQMSSDIDEYKKNIHGNALRTSGSSSSDVTKASLSPDASDFEHITAETPSRPLSSTSNPFKSSKCSTAGSSPNSVSELSLASLTEKIQKMEENHHSTAEELQATLQELSDQQQMVQELTAENEKLVDEKTILETSFHQHRERAEQLSQENEKLMNLLQERVKNEEPTTQEGKIIELEQKCTGILEQGRFEREKLLNIQQQLTCSLRKVEEENQGALEMIKRLKEENEKLNEFLELERHNNNMMAKTLEECRVTLEGLKMENGSLKSHLQGEKQKATEASAVEQTAESCEVQEMLKVARAEKDLLELSCNELRQELLKANGEIKHVSSLLAKVEKDYSYLKEICDHQAEQLSRTSLKLQEKASESDAEIKDMKETIFELEDQVEQHRAVKLHNNQLISELESSVIKLEEQKSDLERQLKTLTKQMKEETEEWRRFQADLQTAVVVANDIKCEAQQELRTVKRKLLEEEEKNARLQKELGDVQGHGRVVTSRAAPPPVDEEPESSEVDAAGRWPGVCVSRTSPTPPESATTVKSLIKSFDLGRPGGAGQNISVHKTPRSPLSGIPVRTAPAAAVSPMQRHSTYSSVRPASRGVTQRLDLPDLPLSDILKGRTETLKPDPHLRKSPSLESLSRPPSLGFGDTRLLSASTRAWKPQSKLSVERKDPLAALAREYGGSKRNALLKWCQKKTQGYANIDITNFSSSWSDGLAFCALLHTYLPAHIPYQELNSQEKKRNLLLAFEAAESVGIKPSLELSEMLYTDRPDWQSVMQYVAQIYKYFET | -0.005819 log2 | 0.2064 log2 |  | 

From paper PMC7367873, “Dissecting the sequence determinants for dephosphorylation by the catalytic subunits of phosphatases PP1 and PP2A” (Nature Communications, 2020)
